One block for each binder: values may come before it.
Assays:
[1] = target: the molecule itself; assay: AUC; sedimentation velocity (SV-AUC), 50 µM protein, 20 °C, 50,000 rpm, absorbance at 280 nm, 20 mM Tris-HCl pH 8.0, SEDFIT c(S) model; buffer (Tris-HCl vs PBS) and salt did not affect the oligomerization state
[2] = target: F-actin (skeletal muscle actin, polymerised) ( (rabbit or chicken skeletal …, UniProt P68135 1-377)); assay: cell-based or functional assay

B1: N-CAP2, N-terminal fragment of human cyclase-associated protein 2 (original coiled coil and helical folded domain) (domain or fragment, UniProt P40123 1-220, looked up)
chain: MANMQGLVERLERAVSRLESLSAESHRPPGNCGEVNGVIAGVAPSVEAFDKLMDSMVAEFLKNSRILAGDVETHAEMVHSAFQAQRAFLLMASQYQQPHENDVAALLKPISEKIQEIQTFRERNRGSNMFNHLSAVSESIPALGWIAVSPKPGPYVKEMNDAATFYTNRVLKDYKHSDLRHVDWVKSYLNIWSELQAYIKEHHTTGLTWSKTGPVASTVS
notes: cyclase-associated protein 2 (CAP2), human; N-terminal coiled coil (a.a. 1-29) followed by the helical folded domain (HFD); Cloned in pET21b; 30-220, so this construct probably ends at 220 (surmised); also called CAP2 tetramer; not shown: 6xHis, C-terminal, kept
stoichiometry N [1]: 4

potentiation of F-actin severing by 50 nM CFL1 with 750 nM N-CAP construct, single filaments by TIRF microscopy, against CFL1 alone [2]: > 2.5 fold
B2: N-CAP1, N-terminal fragment of human cyclase-associated protein 1 (original coiled coil and helical folded domain) (domain or fragment, UniProt Q01518 1-220, looked up)
chain: MADMQNLVERLERAVGRLEAVSHTSDMHRGYADSPSKAGAAPYVQAFDSLLAGPVAEYLKISKEIGGDVQKHAEMVHTGLKLERALLVTASQCQQPAENKLSDLLAPISEQIKEVITFREKNRGSKLFNHLSAVSESIQALGWVAMAPKPGPYVKEMNDAAMFYTNRVLKEYKDVDKKHVDWVKAYLSIWTELQAYIKEFHTTGLAWSKTGPVAKELSGL
notes: cyclase-associated protein 1 (CAP1), human; N-terminal coiled coil (a.a. 1-29) followed by the helical folded domain (HFD); Cloned in pET21b; also called CAP1 tetramer; not shown: 6xHis, C-terminal, kept
stoichiometry N [1]: 4
